Sequences and labels used below:
B1: human Netrin-G2, AVEXIS protein (ligand, UniProt Q96CW9 18-507, looked up)
chain: DYDICKSWVTTDEGPTWEFYACQPKVMRLKDYVKVKVEPSGITCGDPPERFCSHENPYLCSNECDASNPDLAHPPRLMFDKEEEGLATYWQSITWSRYPSPLEANITLSWNKTVELTDDVVMTFEYGRPTVMVLEKSLDNGRTWQPYQFYAEDCMEAFGMSARRARDMSSSSAHRVLCTEEYSRWAGSKKEKHVRFEVRDRFAIFAGPDLRNMDNLYTRLESAKGLKEFFTLTDLRMRLLRPALGGTYVQRENLYKYFYAISNIEVIGRCKCNLHANLCSMREGSLQCECEHNTTGPDCGKCKKNFRTRSWRAGSYLPLPHGSPNACATAGSFGNCECYGHSNRCSYIDFLNVVTCVSCKHNTRGQHCQHCRLGYYRNGSAELDDENVCIECNCNQIGSVHDRCNETGFCECREGAAGPKCDDCLPTHYWRQGCYPNVCDDDQLLCQNGGTCLQNQRCACPRGYTGVRCEQPRCDPADDDGGLDCDRAPG
notes: not shown: AVEXIS tag (bait or prey)
B2: human Netrin-G1, AVEXIS protein (ligand, UniProt Q9Y2I2 29-510, looked up)
chain: HYDLCKTQIYTEEGKVWDYMACQPESTDMTKYLKVKLDPPDITCGDPPETFCAMGNPYMCNNECDASTPELAHPPELMFDFEGRHPSTFWQSATWKEYPKPLQVNITLSWSKTIELTDNIVITFESGRPDQMILEKSLDYGRTWQPYQYYATDCLDAFHMDPKSVKDLSQHTVLEIICTEEYSTGYTTNSKIIHFEIKDRFAFFAGPRLRNMASLYGQLDTTKKLRDFFTVTDLRIRLLRPAVGEIFVDELHLARYFYAISDIKVRGRCKCNLHATVCVYDNSKLTCECEHNTTGPDCGKCKKNYQGRPWSPGSYLPIPKGTANTCIPSISSIGNCECFGHSNRCSYIDLLNTVICVSCKHNTRGQHCELCRLGYFRNASAQLDDENVCIECYCNPLGSIHDRCNGSGFCECKTGTTGPKCDECLPGNSWHYGCQPNVCDNELLHCQNGGTCHNNVRCLCPAAYTGILCEKLRCEEAGSCGS
notes: as for B1

Series [1] deals with T1, human Netrin1, recombinant AVEXIS protein (biotinylated when immobilised) (human, UniProt O95631 25-604).
T1 construct: also called NTN1
Briefly: AVEXIS, prey NTN1 on bait NTNG2. From the text: (§1) The Matn4-bait served as an internal prey-protein control and was used for normalization of the A486 nm values; conditioned medium (CM) serves as negative control; n=3.

For series [2], the target named is T2, human Netrin-3, AVEXIS protein (human, UniProt O00634 28-580).
T2 construct: not shown: AVEXIS tag (bait or prey)
Description: AVEXIS, prey NTN3 on bait NTNG2.
From the text: as §1

Series [3] deals with T3, human Netrin-4, AVEXIS protein (human, UniProt Q9HB63 19-628).
T3 construct: not shown: AVEXIS tag (bait or prey)
T3 sequence (looked up): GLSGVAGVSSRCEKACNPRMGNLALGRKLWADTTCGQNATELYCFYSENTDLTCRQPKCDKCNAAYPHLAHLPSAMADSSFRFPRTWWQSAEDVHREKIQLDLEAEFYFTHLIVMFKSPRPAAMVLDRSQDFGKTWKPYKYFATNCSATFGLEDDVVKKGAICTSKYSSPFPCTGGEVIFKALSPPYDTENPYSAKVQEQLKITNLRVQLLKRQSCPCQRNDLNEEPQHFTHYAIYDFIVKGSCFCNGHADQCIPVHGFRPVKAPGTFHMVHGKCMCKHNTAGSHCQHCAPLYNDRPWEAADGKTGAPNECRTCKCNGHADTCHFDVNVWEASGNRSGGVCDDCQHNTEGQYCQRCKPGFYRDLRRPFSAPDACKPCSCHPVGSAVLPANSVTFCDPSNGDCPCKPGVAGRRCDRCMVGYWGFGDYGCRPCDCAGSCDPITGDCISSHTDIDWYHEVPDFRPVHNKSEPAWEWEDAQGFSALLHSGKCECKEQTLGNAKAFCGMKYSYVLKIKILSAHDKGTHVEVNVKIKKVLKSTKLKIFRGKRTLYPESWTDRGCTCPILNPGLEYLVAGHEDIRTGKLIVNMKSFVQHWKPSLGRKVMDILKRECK
Briefly: AVEXIS, prey NTN4 on bait NTNG2.
From the text: as §1

Series [4] deals with the molecule itself. Briefly: AVEXIS, prey NTNG2 on bait NTNG2.
From the text: as §1

Series [5] addresses T1, human Netrin1, recombinant AVEXIS …. Briefly: AVEXIS, prey on bait NTN1; white = No binding.
From the text: as §1

In series [6] the target is T2, human Netrin-3, AVEXIS protein. Description: AVEXIS, prey on bait NTN3; white = No binding.
From the text: as §1

In series [7] the target is T3, human Netrin-4, AVEXIS protein. Briefly: AVEXIS, prey on bait NTN4; white = No binding.
From the text: as §1

Series [8] concerns the target B2. Briefly: AVEXIS, prey on bait NTNG1; white = No binding.
From the text: as §1

Series [9] concerns the molecule itself. Briefly: AVEXIS, prey on bait NTNG2; white = No binding.
From the text: as §1

Series [10] addresses T4, biotinylated recombinant human UNC5B (human, UniProt Q8IZJ1 27-377).
T4 construct: Made in HEK293-6E and immobilised on an SA chip
Description: AVEXIS, prey on bait UNC5B; white = No binding.
From the text: as §1

Series [11] deals with T5, human DRAXIN, AVEXIS prey or bait protein (human, UniProt Q8NBI3 26-349).
T5 sequence: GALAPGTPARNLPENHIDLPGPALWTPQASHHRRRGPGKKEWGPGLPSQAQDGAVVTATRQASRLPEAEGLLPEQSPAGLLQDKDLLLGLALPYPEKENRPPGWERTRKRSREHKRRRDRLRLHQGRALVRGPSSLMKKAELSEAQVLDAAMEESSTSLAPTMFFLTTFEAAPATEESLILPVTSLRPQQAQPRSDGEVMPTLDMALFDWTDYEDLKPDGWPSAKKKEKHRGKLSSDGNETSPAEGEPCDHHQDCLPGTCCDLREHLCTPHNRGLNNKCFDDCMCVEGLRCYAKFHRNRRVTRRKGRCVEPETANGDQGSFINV
Briefly: AVEXIS, prey on bait DRAXIN; white = No binding.
From the text: as §1

Series [12] has as its target T6, human DRAXIN 21 amino acid Netrin binding fragment, AVEXIS prey or bait protein (human).
T6 construct: Tested in both bait and prey orientations; also called human 21 amino acid DRAXIN fragment; derived 21 amino acid peptide; not shown: AVEXIS tag (rat Cd4d3+4 and prey or bait module)
T6 peptide: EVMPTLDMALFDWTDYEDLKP
Description: AVEXIS, prey on bait DRAXIN 21aa; white = No binding.
From the text: as §1

Series [13] concerns the target T7, Matn4 ECD, mono-biotinylated bait protein (positive control).
T7 construct: extracellular domain; also called Matn4-bait
Briefly: AVEXIS, prey on bait Matn4 (+), positive control for the prey; dark = Binding.
From the text: as §1

Series [14] has as its target T1, human Netrin1, recombinant AVEXIS …. Description: AVEXIS, prey NTN1 on bait NTNG1.
From the text: as §1

The target of series [15] is T2, human Netrin-3, AVEXIS protein. Description: AVEXIS, prey NTN3 on bait NTNG1.
From the text: as §1

Series [16] has as its target T3, human Netrin-4, AVEXIS protein. Description: AVEXIS, prey NTN4 on bait NTNG1.
From the text: as §1

Series [17] deals with the molecule itself. Briefly: AVEXIS, prey NTNG1 on bait NTNG1.
From the text: as §1

Series [18] concerns the target B1. Briefly: AVEXIS, prey NTNG1 on bait NTNG2.
From the text: as §1

Series [19] deals with the molecule itself. Description: AVEXIS, prey on bait NTNG1; white = No binding.
From the text: as §1

For series [20], the target named is B1. Description: AVEXIS, prey on bait NTNG2; white = No binding.
From the text: as §1

T2 sequence (O00634 28-580): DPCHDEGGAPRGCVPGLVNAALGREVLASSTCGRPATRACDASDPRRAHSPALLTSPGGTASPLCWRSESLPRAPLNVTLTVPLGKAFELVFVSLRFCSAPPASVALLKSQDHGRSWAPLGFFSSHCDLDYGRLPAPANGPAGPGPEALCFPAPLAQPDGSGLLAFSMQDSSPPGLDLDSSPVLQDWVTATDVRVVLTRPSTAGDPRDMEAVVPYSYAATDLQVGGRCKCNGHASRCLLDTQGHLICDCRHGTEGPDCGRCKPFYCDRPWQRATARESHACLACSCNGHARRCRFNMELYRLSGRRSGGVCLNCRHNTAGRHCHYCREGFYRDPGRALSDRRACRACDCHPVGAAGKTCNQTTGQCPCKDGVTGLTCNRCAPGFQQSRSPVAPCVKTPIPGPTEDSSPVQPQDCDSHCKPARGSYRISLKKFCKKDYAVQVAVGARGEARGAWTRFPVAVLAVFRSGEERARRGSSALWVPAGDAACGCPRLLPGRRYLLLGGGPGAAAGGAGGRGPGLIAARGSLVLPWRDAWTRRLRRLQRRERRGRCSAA

Take B1: the binding result in [1], in series [2], in series [3] and in series [4] was “no binding” in each case. Moreover, the A486nm in series [5] came out at 0.06; in series [6], 0.062; in [7], 0.063; in [8], 0.061; in series [9], 0.062; in series [10], 0.061. The A486nm in [11] stood at 0.06; in series [12] it was 0.063; in series [13], 0.201.
Take B2: the binding result in [14], in series [15], in series [16], in [17] and in series [18] was “no binding” throughout. The A486nm in series [5] worked out at 0.062; in [6], 0.064; in series [7] it was 0.066; in [19] it was 0.062; in [20] it was 0.061; in series [10], 0.061. Moreover, the A486nm in [11] amounted to 0.061; in series [12], 0.063; in [13], 0.254.

The values are drawn from US20160347802A1 (MAX PLANCK GESELLSCHAFT ZUR FOERDERUNG DER WISSENSCHAFTEN E …, published 2016).
